Data set [1] addresses T1, CgIDH (Corynebacterium glutamicum, UniProt P50216).
T1 construct: His-tag (His6, pET24a-derived LEHHHHHH) (C); made in house; host or cells: E. coli BL21 (DE3)
T1 sequence (P50216 with tags, fused parts or gaps): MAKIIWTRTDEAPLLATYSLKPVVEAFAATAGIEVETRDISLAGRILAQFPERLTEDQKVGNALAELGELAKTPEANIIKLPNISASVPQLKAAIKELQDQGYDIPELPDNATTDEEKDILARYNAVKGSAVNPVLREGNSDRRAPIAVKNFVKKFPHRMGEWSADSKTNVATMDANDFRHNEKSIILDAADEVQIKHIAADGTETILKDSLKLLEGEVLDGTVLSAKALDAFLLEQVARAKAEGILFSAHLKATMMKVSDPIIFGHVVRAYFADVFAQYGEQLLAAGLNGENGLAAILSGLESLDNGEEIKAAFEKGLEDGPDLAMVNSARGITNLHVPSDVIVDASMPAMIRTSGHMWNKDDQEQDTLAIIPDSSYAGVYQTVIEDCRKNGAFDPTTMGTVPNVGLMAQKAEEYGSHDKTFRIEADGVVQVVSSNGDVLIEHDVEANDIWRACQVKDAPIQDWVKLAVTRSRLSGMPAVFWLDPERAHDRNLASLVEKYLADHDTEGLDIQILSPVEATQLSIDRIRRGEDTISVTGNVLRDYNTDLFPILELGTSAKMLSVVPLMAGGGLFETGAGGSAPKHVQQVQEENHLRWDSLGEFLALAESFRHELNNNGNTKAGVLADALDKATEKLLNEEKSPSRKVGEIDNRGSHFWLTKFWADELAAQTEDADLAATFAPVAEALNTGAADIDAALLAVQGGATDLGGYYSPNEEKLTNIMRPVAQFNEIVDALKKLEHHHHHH
The data set is described as follows: Enzyme activity inhibitory effect by α-ketoglutarate on CgIDH. The format is biochemical. The following applies: 10 mM α-ketoglutarate added; 5 nM CgIDH. The procedure: (§1) In order to confirm an enzyme activity inhibitory effect by α-ketoglutarate, which is an enzyme reaction product of the recombinant protein produced in the present invention, a reaction product, in which 5 nM of CgIDH and 5 nM AvIDH were each added to a reaction solution containing 100 mM potassium phosphate buffer (pH 7.4), 0.8 mM manganese sulfate, 40 mM DL-isocitric acid, and 0.5 mM NADP, was prepared. Thereafter, α-ketoglutarate was added for each concentration to proceed the reaction as described in Example 5, and the degree of increase of NADPH was measured. Here, an experimental group to which α-ketoglutarate was not added was used as a control group.

Data set [2] has as its target T2, AvIDH (Azotobacter vinelandii, UniProt P16100).
T2 construct: His-tag (His6, pET24a-derived LEHHHHHH) (C); made in house; host or cells: E. coli BL21 (DE3)
T2 sequence (P16100 with tags, fused parts or gaps): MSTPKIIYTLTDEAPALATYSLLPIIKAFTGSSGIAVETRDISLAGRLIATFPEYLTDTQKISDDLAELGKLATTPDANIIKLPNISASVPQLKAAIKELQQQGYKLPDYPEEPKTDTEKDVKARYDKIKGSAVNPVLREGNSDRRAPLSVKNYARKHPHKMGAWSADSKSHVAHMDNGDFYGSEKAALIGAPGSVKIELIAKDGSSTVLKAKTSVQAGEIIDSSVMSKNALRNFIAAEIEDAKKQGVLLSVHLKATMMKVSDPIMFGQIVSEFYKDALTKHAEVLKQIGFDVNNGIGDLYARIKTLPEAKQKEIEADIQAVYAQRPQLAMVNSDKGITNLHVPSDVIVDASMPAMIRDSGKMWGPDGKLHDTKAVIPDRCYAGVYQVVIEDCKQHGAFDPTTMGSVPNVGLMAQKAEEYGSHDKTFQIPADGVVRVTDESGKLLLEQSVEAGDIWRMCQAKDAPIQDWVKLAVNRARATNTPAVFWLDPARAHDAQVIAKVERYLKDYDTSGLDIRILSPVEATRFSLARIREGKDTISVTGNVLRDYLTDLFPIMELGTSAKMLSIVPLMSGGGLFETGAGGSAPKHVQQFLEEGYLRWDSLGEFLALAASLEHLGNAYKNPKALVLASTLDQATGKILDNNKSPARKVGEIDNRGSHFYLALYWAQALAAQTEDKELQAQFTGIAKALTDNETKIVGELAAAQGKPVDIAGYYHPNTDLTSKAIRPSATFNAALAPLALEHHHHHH
The data set is described as follows: Enzyme activity inhibitory effect by α-ketoglutarate on AvIDH. It counts as biochemical. To be noted: 20 mM α-ketoglutarate added; 5 nM AvIDH. As to the method:
as §1

The subject of data set [3] is NADPH regeneration. The data set is described as follows: Specific activity analysis of recombinant IDH protein (NADPH increase measured by fluorescence). The format is biochemical. To be noted: 5 nM enzyme; for specific activity: 100 mM potassium phosphate buffer pH 7.4, 0.8 mM MnSO4, 0.8 mM DL-isocitric acid, 0.5 mM NADP+. The procedure:
In order to confirm the degree of NADPH regeneration by the activity of the IDH recombinant protein, CgIDH and AvIDH were each added to a reaction solution containing 100 mM potassium phosphate buffer (pH 7.4), 0.8 mM manganese sulfate (MnSO4), 0.8 mM DL-isocitric acid, and 0.5 mM NADP+ so that the final concentrations were 5 nM, and the degree of increase of NADPH depending on the enzyme activity was measured with a spectrophotometer. When fluorescence was measured using a spectrophotometer, an excitation wavelength was set to 350 nm and an emission wavelength was set to 450 nm, and the measurement results are shown in FIG. 7.

Data set [4] deals with NADPH regeneration. The data set is described as follows: Kinetic constant analysis of purified recombinant protein. It counts as biochemical. The following applies: wild-type CgIDH and AvIDH parameters as control groups. As to the method: The analysis of kinetic properties related to an enzyme activity of the recombinant protein, that is, a kinetic constant, was performed by the following procedure.
The analysis of kinetic activity for each of the recombinant proteins purified in Example 2 was performed based on the method described in Chen, R. & Yang, H. Biochemistry and Biophysics, 383(2):238-245 (2000); and Watanabe, S. Microbiology 151(4):1083-1094 (2005).
Here, a Km (uM) value representing the affinity of the enzyme to the substrate as a reaction constant used in enzyme kinetics, a Kcat(S-1) value, which means the metabolic turnover number of the enzyme, and a Kcat/Km (S-1, M-1) value representing a reaction efficiency of the enzyme, were determined.

Data set [5] concerns the target cytochrome P450 BM3 (Priestia megaterium, UniProt P14779). The data set is described as follows: Coupling reaction with cytochrome P450 BM3, HPLC analysis of hydroxylation product of substrate. It counts as biochemical, Bacillus megaterium. The following applies: coupling reaction 5 min; control = NADPH itself added; CgIDH 10 nM or AvIDH 5 nM, 500 nM P450 BM3, 2 mM omeprazole. The procedure:
In the above reaction, in order to confirm that the activity of cytochrome P450 BM3 is maintained by substantial NADPH regeneration, and the hydroxylation reaction of omeprazole, which is one of the substrates, occurs, to 1 mL of a reaction solution containing 100 mM potassium phosphate buffer (pH 7.4), 0.8 mM manganese sulfate, 40 mM DL-isocitric acid, 0.5 mM NADP, and 2 mM omeprazole, CgIDH and cytochrome P450 BM3 were added so that the final concentrations were 10 nM and 500 nM, respectively, and AvIDH and cytochrome P450 BM3 were added so that the final concentrations were 5 nM and 500 nM, respectively, to prepare a reaction product.
The reaction mixture was recovered by 90 uL each time, mixed with 90 uL of methanol to stop the reaction, and then HPLC analysis was performed. Specific HPLC performance conditions are as follows: • HPLC was performed using an Alliance HPLC system (Waters). • A SunFire 18C column was used as a column • The amount of sample loading was set to 20 uL. • As a HPLC mobile phase, 30% acetonitrile was flowed at a flow rate of 1 mL/min, and an eluate was measured with ultraviolet (UV) light at 302 nm. • Analysis was performed using an Empower 3 (Waters) program. […]

Data set [6] in a line: Storage stability of recombinant protein. It counts as physicochemical. The following applies: storage at 4° C. for 30 days; 5 nM enzyme. As to the method:
In order to evaluate the stability of the recombinant protein produced in the present invention, after a certain period of time, each of the recombinant proteins stored at 4° C. was added to a reaction solution containing 100 mM potassium phosphate buffer (pH 7.4), 0.8 mM manganese sulfate, 40 mM DL-isocitric acid, and 0.5 mM NADP+ so that the final concentration was 5 nM, the reaction was proceeded as described in Example 5, and the degree of increase of NADPH was measured.

cytochrome P450 BM3, sequence (P14779 whole entry): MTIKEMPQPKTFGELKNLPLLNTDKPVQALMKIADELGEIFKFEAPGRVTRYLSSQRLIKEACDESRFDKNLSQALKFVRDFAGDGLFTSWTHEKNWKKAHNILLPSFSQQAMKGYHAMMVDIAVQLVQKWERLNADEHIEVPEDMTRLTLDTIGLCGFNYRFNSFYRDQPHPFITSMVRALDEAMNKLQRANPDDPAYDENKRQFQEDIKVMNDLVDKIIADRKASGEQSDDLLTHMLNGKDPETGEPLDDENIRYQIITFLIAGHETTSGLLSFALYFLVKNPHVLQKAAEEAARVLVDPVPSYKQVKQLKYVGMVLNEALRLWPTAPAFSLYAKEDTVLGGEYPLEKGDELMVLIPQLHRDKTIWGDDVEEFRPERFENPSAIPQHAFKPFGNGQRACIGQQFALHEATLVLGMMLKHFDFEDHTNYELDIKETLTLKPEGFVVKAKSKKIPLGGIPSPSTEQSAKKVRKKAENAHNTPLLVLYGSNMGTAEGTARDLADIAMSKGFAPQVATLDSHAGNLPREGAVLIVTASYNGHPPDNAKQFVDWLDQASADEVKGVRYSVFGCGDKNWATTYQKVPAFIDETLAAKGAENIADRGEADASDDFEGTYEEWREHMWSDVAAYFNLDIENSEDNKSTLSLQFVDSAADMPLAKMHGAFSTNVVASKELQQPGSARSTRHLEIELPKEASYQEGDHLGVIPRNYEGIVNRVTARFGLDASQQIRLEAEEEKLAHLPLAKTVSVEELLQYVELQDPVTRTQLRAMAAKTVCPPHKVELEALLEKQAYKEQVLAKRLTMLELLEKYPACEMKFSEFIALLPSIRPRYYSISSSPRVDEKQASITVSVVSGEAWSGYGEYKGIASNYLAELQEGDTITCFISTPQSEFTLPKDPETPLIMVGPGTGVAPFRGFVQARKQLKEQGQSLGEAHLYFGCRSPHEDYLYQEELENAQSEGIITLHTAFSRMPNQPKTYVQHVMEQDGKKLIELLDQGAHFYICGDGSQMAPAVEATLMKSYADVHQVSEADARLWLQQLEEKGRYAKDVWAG

For `O=C(O)CCC(=O)C(=O)O` [α-ketoglutarate], the “reduction of enzyme activity” value in data set [1] and in data set [2] was 30% throughout.

B1: AvIDH: recombinant monomeric isocitrate dehydrogenase from Azotobacter vinelandii, SEQ ID NO: 2, C-terminal histidine tag (protein)
chain: MSTPKIIYTLTDEAPALATYSLLPIIKAFTGSSGIAVETRDISLAGRLIATFPEYLTDTQKISDDLAELGKLATTPDANIIKLPNISASVPQLKAAIKELQQQGYKLPDYPEEPKTDTEKDVKARYDKIKGSAVNPVLREGNSDRRAPLSVKNYARKHPHKMGAWSADSKSHVAHMDNGDFYGSEKAALIGAPGSVKIELIAKDGSSTVLKAKTSVQAGEIIDSSVMSKNALRNFIAAEIEDAKKQGVLLSVHLKATMMKVSDPIMFGQIVSEFYKDALTKHAEVLKQIGFDVNNGIGDLYARIKTLPEAKQKEIEADIQAVYAQRPQLAMVNSDKGITNLHVPSDVIVDASMPAMIRDSGKMWGPDGKLHDTKAVIPDRCYAGVYQVVIEDCKQHGAFDPTTMGSVPNVGLMAQKAEEYGSHDKTFQIPADGVVRVTDESGKLLLEQSVEAGDIWRMCQAKDAPIQDWVKLAVNRARATNTPAVFWLDPARAHDAQVIAKVERYLKDYDTSGLDIRILSPVEATRFSLARIREGKDTISVTGNVLRDYLTDLFPIMELGTSAKMLSIVPLMSGGGLFETGAGGSAPKHVQQFLEEGYLRWDSLGEFLALAASLEHLGNAYKNPKALVLASTLDQATGKILDNNKSPARKVGEIDNRGSHFYLALYWAQALAAQTEDKELQAQFTGIAKALTDNETKIVGELAAAQGKPVDIAGYYHPNTDLTSKAIRPSATFNAALAPLALEHHHHHH
modifications: C-terminal His tag; AvIDH protein
Regarding B1, in data set [3], the specific activity worked out at 28 U/mg. Also, in data set [4], the “Kcat compared with the wild-types” value is “slight decrease”. In addition, in data set [5], the “elution amount of 5′-hydroxyomeprazole based on the elution amount produced in the control group” value came out at 114%. Besides, the “enzyme activity after storage” value in data set [6] was “did not decrease”.

B2: CgIDH: recombinant monomeric isocitrate dehydrogenase from Corynebacterium glutamicum, SEQ ID NO: 1, C-terminal histidine tag (protein)
chain: MAKIIWTRTDEAPLLATYSLKPVVEAFAATAGIEVETRDISLAGRILAQFPERLTEDQKVGNALAELGELAKTPEANIIKLPNISASVPQLKAAIKELQDQGYDIPELPDNATTDEEKDILARYNAVKGSAVNPVLREGNSDRRAPIAVKNFVKKFPHRMGEWSADSKTNVATMDANDFRHNEKSIILDAADEVQIKHIAADGTETILKDSLKLLEGEVLDGTVLSAKALDAFLLEQVARAKAEGILFSAHLKATMMKVSDPIIFGHVVRAYFADVFAQYGEQLLAAGLNGENGLAAILSGLESLDNGEEIKAAFEKGLEDGPDLAMVNSARGITNLHVPSDVIVDASMPAMIRTSGHMWNKDDQEQDTLAIIPDSSYAGVYQTVIEDCRKNGAFDPTTMGTVPNVGLMAQKAEEYGSHDKTFRIEADGVVQVVSSNGDVLIEHDVEANDIWRACQVKDAPIQDWVKLAVTRSRLSGMPAVFWLDPERAHDRNLASLVEKYLADHDTEGLDIQILSPVEATQLSIDRIRRGEDTISVTGNVLRDYNTDLFPILELGTSAKMLSVVPLMAGGGLFETGAGGSAPKHVQQVQEENHLRWDSLGEFLALAESFRHELNNNGNTKAGVLADALDKATEKLLNEEKSPSRKVGEIDNRGSHFWLTKFWADELAAQTEDADLAATFAPVAEALNTGAADIDAALLAVQGGATDLGGYYSPNEEKLTNIMRPVAQFNEIVDALKKLEHHHHHH
modifications: C-terminal His tag; CgIDH protein
As to B2, in data set [3], the “enzyme activity (enzyme reaction slope) compared with AvIDH at the same amount of protein” value is “higher enzyme activity” and the specific activity is 57 U/mg. Further, the “Kcat compared with the wild-types” value in data set [4] is recorded as “slight decrease”. In addition, the “elution amount of 5′-hydroxyomeprazole based on the elution amount produced in the control group” value in data set [5] was 126%. Besides, the “enzyme activity after storage” value in data set [6] is on record as “did not decrease”.
